Target: T1, C-terminal shedding-resistant peptide of MSLN (residues 582-598) (human, UniProt Q13421-3)
T1 construct: Mesothelin, human, 17-residue peptide I582 to S598, holds most of the major sheddase cleavage sites; numbers count on: the 622-residue precursor, isoform Q13421-3; also called C-terminal peptide; 17-residue peptide; source: synthetic peptide (GenScript)
T1 chain: IPNGYLVLDLSMQEALS
Experiment: crystal structure; synthetic peptide 582-598 mixed with Fab(15B6) at a molar ratio of 3:1 in 20 mmol/L Tris, 100 mmol/L NaCl, pH 7.5, overnight at 4°C; 1.74 Å
Settings: both partners purified

binding result: binds
B1: Fab fragment of mAb 15B6 (Fab, V domains shown)
VH: EVQLQQSGPVLVKPGASVKISCKASGYSFTGYYMHWVRQSNGKSLEWIGRINPYTGVPSYKHNFKDKASLTVDKSSSTAYMELHSLTSEDSAVYYCARELGGYWGQGTTLTVSS
VL: QAVVTQESALTTSPGETVTLTCRSSTGAVTTGNYPNWVQEKPDHLFTGLIAGTNNRAPGVPARFSGSLIGDKAALTITGAQTEDEAIYFCALWFSSHWVFGGGTKLTVL
notes: heavy chain of the Fab in PDB 7U8C (214 residues modelled); mouse IgG2b; light chain of the Fab in PDB 7U8C (213 residues modelled); mouse lambda; mouse isotype IgG2b lambda; raised against the peptide I582-S598; also called Fab(15B6); Fab of Mab 15B6; source: mAb 15B6 obtained from GenScript, digested with immobilised papain, Fc removed on Protein A

Source: article PMC10035497, “Structures of Cancer Antigen Mesothelin and Its Complexes with Therapeutic Antibodies” (Cancer Research Communications, 2023)
